Test results as given in the nanobody polyreactivity screen of Harvey et al. (2022).

Experiment: yeast display, Sf9 membrane polyspecificity reagent, FACS + sequencing; frameworks hold sequencing errors
Method in brief: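 A nanobody's polyreactivity label depends on the gate it was sorted from. Yeast display cells were stained with 10% biotinylated, detergent-solubilized Sf9 membrane reagent for 1 hour at 4 °C, enriched on streptavidin microbeads and sorted by FACS. The low and high (top ~1%) gates were set on anti-HA fluorescence for expression and streptavidin fluorescence for reagent binding.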

| Sequence | polyreactivity (PSR sort gate) |
| --- | --- |
| QVQLVESGGGLVQAGGSLRLSCAASGSIFVGYAMGWYRQAPGKEREWVAAIRSGGSTKYADSVKGRFTISRDNAKNTVYLQMNSLKPEDTAVYYCNVEVHPYYWVDNFQRFPVLHNYWGQGTQVTVSS | low polyreactivity |
| QVQLVESGGGLVQAGGSLRLSCAASGSIFVGYDMGWYRQAPGKERELVAAISWRGVGTYYADSVKGRCTISRDNAKNTVYLQMNSLKPEDTAVYYCAARWTVPRDSAPSKGYDYWGQGTQVTVSS | low polyreactivity |
| QVQLVESGGGLVQAGGSLRLSCAASGSIFVHNAMGWYRQAPGKERELVAAITWSGGSTYYADSVKGRFTISRDNAKNTVYLQMNSLKPEDTAVYYCNATYSVRYYLEFLNEPEMDYWGQGTQVTVSS | low polyreactivity |
| QVQLVESGGGLVQAGGSLRLSCAASGSIFVINAMGWYRQAPGKERELVAAIDWSGDSTYYADSVKVRFTISRDNAKNTVYLEMNSLKPEDTAVYYCAADLDSRGTYGRYEYWGQGTQVTVSS | low polyreactivity |
| QVQLVESGGGLVQAGGSLRLSCAASGSIFVIYAMGWYRQAPGKERELVAAISRSGGRTYYADSVKGRFTISRDNAKTTVYLQMNSLKPEDTAVYYCAAEGSTYQGAPGVYYWGQGTQVTVSS | high polyreactivity |
| QVQLVESGGGLVQAGGSLRLSCAASGSIFVIYAMGWYRQAPGKERELVATISGGGGTNYADSVKGRFTISRDNAKNTVYLQMNSLNPEDTAVYYCAARSKVHRWRKRYDYWGQGTQVTVSS | high polyreactivity |
| QVQLVESGGGLVQAGGSLRLSCAASGSIFVKNAMGWYRQAPGKEREFVAAITTSGGSTNYADSVKGRFTISLDNAKNTVYLQMNSLKPEDTAVYYCNTDIFPAAYDYWGQGTQVTVSS | low polyreactivity |
| QVQLVESGGGLVQAGGSLRLSCAASGSIFVKNAMGWYRQAPGKERELVARITYSGGSTYYADSVKGRFTISRDNAKNTVYLQMNSLKPEDTAVYYCAARYWYFPQTYYPGNDYWGQGTQVTVSS | high polyreactivity |
| QVQLVESGGGLVQAGGSLRLSCAASGSIFVLNAMGWYRPAPGKDRELVAAITNVGSTYYADSVKGRFTISRDNAKNTVYLQMNSRKPEDTAVYYCNADPAEVLVGYDYWGQGTQVTVSS | low polyreactivity |
| QVQLVESGGGLVQAGGSLRLSCAASGSIFVLNAMGWYRQAPGKERELVAAITNVGSTYYADSVKGRFTISRDNAKNTVYLQMNSLKPEDTAVYYCVAKGHLYSGGYEYYYWGQGTQVTVSS | low polyreactivity |
| QVQLVESGGGLVQAGGSLRLSCAASGSIFVLYAMGWYRQAPGKEREFVAAISWSGDSTYYADSVKGRFTISRDNAKNTVFLQMNSLKPEDTAVYYCAVYGYRTKYGYWGQGTQVTVSS | high polyreactivity |
| QVQLVESGGGLVQAGGSLRLSCAASGSIFVNYAMGWYRQAPGKERELVAAITSRGTRTYYADSVKGRFTISRDNAKNTVYLQMNSLKPEDTAVYYCAAKQVSRGVAAYDYWGQGTQVTVSS | high polyreactivity |
| QVQLVESGGGLVQAGGSLRLSCAASGSIFVPNAMGWYRQAPGNERELVADLTRRGGSTYYADSVKGRFTISRDNAKNTVYLQMNSLKPEDTAVYYCNATYLTRSTRLSDFDYWGQGTQVTVSS | high polyreactivity |
| QVQLVESGGGLVQAGGSLRLSCAASGSIFVPNTMGWYRQAPGKERELVAAIRFSSGRTYYADSVKGRFTISRDNAKNTVYLQMNSLKPEVTAVYYCAADPRYSSGITYTRFYYWGQGTQVTVSS | high polyreactivity |
| QVQLVESGGGLVQAGGSLRLSCAASGSIFVPYAMGWYRQAPGKERELVAAINHGGGRTYADSVKGRFTISRDNAKNTVYLQMNSLKPEDTAVYYCAADGAHKFGYYRYYYWGQGTQVTVSS | low polyreactivity |
| QVQLVESGGGLVQAGGSLRLSCAASGSIFVPYAMGWYRQAPGKERELVAAISNGDSTYYADSVKGRFTISRDNAKNTVYLQMNSLKPEDTAVYYCATRGIPDDNARDYWGQGTQVTVSS | low polyreactivity |
| QVQLVESGGGLVQAGGSLRLSCAASGSIFVPYAMGWYRQAPGKERELVAAITWSGSSTYYADSVKGRFTISRDNAKNTVYLQMNSLKPEDTAVYYCAADYFDWEGNGYYYWGQGTQVTVSS | high polyreactivity |
| QVQLVESGGGLVQAGGSLRLSCAASGSIFVQNAMGWYRQAPGTERELVAVINSGDSTNYADSVKGRFTISRDNAKNTVDLQMNSLKPEDTAVYYCAVDDVSYYYLRAYNYELSWYCSGLDYWGQGTQVTVSS | low polyreactivity |
| QVQLVESGGGLVQAGGSLRLSCAASGSIFVQYAMGWYRQAPGKERELVAAISRGGGRTYYADSVKGRFTISRDNANNTVYLQMNSLKPEDTAVYYCAADSRPRDDYWGQGTQVTVSS | high polyreactivity |
| QVQLVESGGGLVQAGGSLRLSCAASGSIFVRNAMGWYRQAPGKERELVAAITATGGRTYYADSVKGRFTISRDNAKNTVYLQMNSLKPEDTAVYYCAAYYPRSGYDYWGQGTQVTVSS | high polyreactivity |

| Sequence | polyreactivity (PSR sort gate) |
| --- | --- |
| QVQLVESGGGLVQAGGSLRLSCAASGSIFVRNGMGWYIQAPGKERELVASITSGTITYYADSVKGRFTISRDNAKNTVYLQMNSLKPEDTAVYYCAARRDRGRVKFYYWGQGTQVTVSS | high polyreactivity |
| QVQLVESGGGLVQAGGSLRLSCAASGSIFVRNGMGWYRQAPGKERELVASITSGTITYYADSVKGRFTISRDNAKNTVYLQINSLKPEDTAVYYCNAGCRSSRFKRPYFRERNYWGQGTQVTVSS | high polyreactivity |
| QVQLVESGGGLVQAGGSLRLSCAASGSIFVRYAMGWYRQAPGKERQLVASIRSRGDSTYYADSVKGRFTISRDNAKNTVYLQMNSLKPEETAVYYCAARRYPPRMDYWGQGTQVTVSS | high polyreactivity |
| QVQLVESGGGLVQAGGSLRLSCAASGSIFVRYTMAWYRQAPGKERELVAAISWGGGSTYYADSVKGRFTISRDNAKYTVYLQMNSLKPEDTAVYFCNKRYIQLYDYWGQGTQVTVSS | low polyreactivity |
| QVQLVESGGGLVQAGGSLRLSCAASGSIFVSEYVMGLSRPAPGKERELVARIRWSSGSTYYADSVKGRFTISRDNAKNTVYLQIYSLKPEDTAVYYCNKDYYYVIGWTYHRSYHYDYWGQGTQVTVSS | low polyreactivity |
| QVQLVESGGGLVQAGGSLRLSCAASGSIFVSYAMVWYRQAPGKERELVAAITRSGGSTYYADSVKGRFTISRDNAKNTVYLQMNSLKPEDTAVYYCAARSYLGAYRRYYWGQGTQVTVSS | high polyreactivity |
| QVQLVESGGGLVQAGGSLRLSCAASGSIFVSYARGWYRQAPGKERELVAAITGRTGSTYYADSVKGRFTISRDNAKNTVYLQMNSLKAEDTGVYYCAARHKQHNRYDYWGQGTKVTVSS | low polyreactivity |
| QVQLVESGGGLVQAGGSLRLSCAASGSIFVTNAMGWYRQAPGKERELVAAINQGGGSTYYADSVKGRFTISRDNAKNTVYLQMNSLKPEDTAVYYCATDAPYFVPFSTNGEFGDEYWGQGTQVTVSS | low polyreactivity |
| QVQLVESGGGLVQAGGSLRLSCAASGSIFVTNAMGWYRQAPGKERELVAAISVSGGSTYYADSVKGRFTISRDNAKNTVYLQMNSLKPEDTGVYYCAADGYIGWRHIYEYWGQGTQVTVSS | low polyreactivity |
| QVQLVESGGGLVQAGGSLRLSCAASGSIFVTYAMGSYRQAPGKERELVAAITSIGGTTYYSDSVKGRFTISRDNAKNTVYLQMNSLKPEDTAVYYCAVDGGEFSSYGYWGQGTEVTVSS | low polyreactivity |
| QVQLVESGGGLVQAGGSLRLSCAASGSIFVTYAMGWYRQAPGKERELVAAISTSGGSTYADSVKGRFTISRDNAKNTVYLQMNSLKPEDTAVYYCNADDPGYAVPWYWFKYDYWGQGTQVTGSS | low polyreactivity |
| QVQLVESGGGLVQAGGSLRLSCAASGSIFVTYAMGWYRQAPGKERELVAAITGRDGITYADSVKGRFTISCDNAKNTVYVQMNSLKPEDTAVYYCAAVSHGVYYQYRRRYYSWGQGTQVTVSS | high polyreactivity |
| QVQLVESGGGLVQAGGSLRLSCAASGSIFVVYAMGWYRQAPGKERELVAAITADDDTNYADSVKGRFTISRDNAKNTDYLQMNSLKPEDTAVYYCAKEVWLAINTRTGYEVYYWGQGTQVTVSS | low polyreactivity |
| QVQLVESGGGLVQAGGSLRLSCAASGSIFVWNARGWYRQAPVKERELVAAISYTDGSTYYADFVKGRFTISRDNAKNTVYLQMNSLKPEDTAVYFCAAAITRSYTGSEYDYWGQGTEVTVSS | low polyreactivity |
| QVQLVESGGGLVQAGGSLRLSCAASGSIFVWYAMGWYRQEPGKERELVATISSRGGTTYYADSVKGRFTISRDNAKNTVYLQMNSLKPEDTAVYYCNAKRRAQYGYRVFRYDYWGQGTQVTVSS | high polyreactivity |
| QVQLVESGGGLVQAGGSLRLSCAASGSIFVWYDLGWYRQAPGKERELVATISLSGVSTYYADSVKGRFTISRDNAKNTVYLQMNSLKPEDTAVYYCAADFVEQGEDDYWGQGTQVTVSS | low polyreactivity |
| QVQLVESGGGLVQAGGSLRLSCAASGSIFVYNAMGWYRQAPGKERELVAAITTGGSTNYADSVKGRFTISRDNAKNTVYLQMNSLKPEDTAVYDCNAVHEASYAGVDYWGQGTQVTVSS | low polyreactivity |
| QVQLVESGGGLVQAGGSLRLSCAASGSIFVYNAMGWYRQAPGKERELVAAITWSGGNTYYADSVKGRFTISRDNAKNTVYLEMNSLKPEDTAVSYCPAEFWQQGGWWEYDYWGQGTQVTVSS | low polyreactivity |
| QVQLVESGGGLVQAGGSLRLSCAASGSIFVYNAMGWYRQAPVKERELVAVITLRSGSTNYADSVKGRFTISRDNEKNTVYLQMNSLKPEDTAVYYCAADDTYHDYQRDTDDDYWGQGTQVTVSS | low polyreactivity |
| QVQLVESGGGLVQAGGSLRLSCAASGSIFVYYAMGWYRQAPGKERELVAAISSTGGRTYYADSVKGRFTISRDNAKNTVYLQMNSLKPEDTAVYYCNAARTGYRYYDWFYDYDYWGQGTQVTVSS | low polyreactivity |
